Test results from a protein production outcome set (Wang et al. 2014).

Assay: label from the status in PepcDB records

| Sequence | protein production |
| --- | --- |
| MKEIVERVKTKTKIPVYERSVENVLSAVLASDDIWRIVDLSEEPLPLVVAILESLNELGYVTFEDGVKLTEKGEELVAEYGIGKRYDFTCPHCQGKTVDLQAFADLLEQFREIVKDRPEPLHEFDQAYVTPETTVARVILMHTRGDLENKDIFVLGDDDLTSIALMLSGLPKRIAVLDIDERLTKFIEKAANEIGYEDIEIFTFDLRKPLPDYALHKFDTFITDPPETLEAIRAFVGRGIATLKGPRCAGYFGITRRESSLDKWREIQKLLLNEFNVVITDIIRNFNEYVNWGYAEETRAWKLIPIKKLPEYNWYKSYMFRIETLEGSRGYEDEIPEEDIYNDEESSTT | not failed |
| MKEKVVLAYSGGLDTSVILKWLCEKGFDVIAYVANVGQKDDFVAIKEKALKTGASKVYVEDLRREFVTDYIFTALLGNAMYEGRYLLGTAIARPLIAKRQVEIAEKEGAQYVAHGATGKGNDQVRFELTYAALNPNLKVISPWKDPEFLAKFKGRTDLINYAMEKGIPIKVSKKRPYSEDENLMHISHEAGKLEDPAHIPDEDVFTWTVSPKDAPDEETLLEIHFENGIPVKVVNLKDGTEKTDPLELFEYLNEVGAKNGVGRLDMVENRFIGIKSRGVYETPGATILWIAHRDLEGITMDKEVMHLRDMLAPKFAELIYNGFWFSPEMEFLLAAFRKAQENVTGKVTVSIYKGNVMPVARYSPYSLYNPELSSMDVEGGFDATDSKGFINIHALRLKVHQLVKKGYQR | not failed |
| MKENDGAPLKEGETASKYSVIINMILVVIKGFTGYLSGNIALIADAIHSFADVFSSAAVFIGLKLSQRKPDELFPYGYHRIETLVSLLVSVLIIITGLEITWDSIIYILNPASEVSMATASLAVSLISIGVSYAIAFYKVRVGRRIGSTALLNDGKHSYVDVISSILVFLGILGEYMGLHGFQGIAGVIISVVIIYIGIRLAKYDVLTLLDACIDRDSIEVIKKTVLSVPGVEGVHDIRIRRSGPYLFGELHIELERGLPVDKIEGIISQINSRVKEVLPSIDHLTVQPETVKREEVVVAVPLADNHGMESRISTHFGRADSFLIARTRRGEILDYRIIENSGKSLRTKRGIRAAELLKDENIDVLVIEKLSEGPELLFSDYLLGKVPPEGSSLEEVIKNASMKFSE | failed |
| MKENKLDYIPEPMDLSLVDLPESLIQLSERIAENVHEVWAKARIDEGWTYGEKRDDIHKKHPCLVPYDELPEEEKEYDRNTAMNTIKMVKKLGFRIEKED | not failed |
| MKEVSAAPKITNVKAAILGFQHLLAMYSGDVLVPLLIGAALHFSQEQLTYLVSIDIFMCGIATFLQLKRTPLTGIGLPVVLGCAVQAVNPLIQIGKTYGLGTMYGSIIGAGIFIFLIAGLFSKIKNLFPPVVTGSLITIIGFTLIPVAFQNLGGGDTSAKDFGNLQALGIGFLTIAIILLISVFARGFMKSVSILIGILVGTLIAGAMGMVSLKPVAEASWFHLPTLFYFGTPHFEWSSILTMILVSLTTMVESTGVFFALGDITGRKIEGDDLKRGYRAEGIAVILGGLFSTFPYSTFSENVGVVQLSGVKTRKPIYFSAAFLVVLGLLPKIGALATIIPDPVLGGAMVVMFGIVGIQGIRMLAQVDFRNNNNLLVAAVSIGLGLGVTVQTNIFQFLPGALQIMLSNGVVVGSVAAVGLNLLFNRHAAENTVDDESVGLNETEQP | failed |
| MKFIIEALKRVRERRPLVHNITNFVVMNTTANALLALGASPVMAHAEEELEEMIRLADAVVINIGTLDSGWRRSMVKATEIANELGKPIVLDPVGAGATKFRTRVSLEILSRGVDVLKGNFGEISALLGEEGKTRGVDSLEYGEEEAKKLTMNAAREFNTTVAVTGAVDYVSDGRRTFAVYNGHELLGRVTGTGCMVAALTGAFVAVTEPLKATTSALVTFGIAAEKAYEEAKYPGSFHVKLYDWLYRINENVIRTYAKVREVEL | not failed |
| MKFKIHSDITYQVMSPTTFIFNVHALRTESQHILDESLIVTPPIEIEEFSYNSGTSRFVRLKATENTTFSMSYTATVDTQYKVIDQRQELETVPVVDLDGDIIPFLFPSRYCQSDKLQKLAYKEFGKIENVYSKVLAITDWIYNNVEYISGSTNSQTSAFDTITERAGVCRDFAHLGIALCRALSIPARYFTGYAFKLNPPDFHACFEAYIGGNWIIFDATRLVPLNGLVKIATGRDAADAAVASIFGNASSTNMHVECASLDTDFTPFWYDKNSLKGLSFQ | not failed |
| MKFLPYIFLLCCGLWSTISFADEDYIEYRGISSNNRVTLDPLRLSNKELRWLASKKNLVIAVHKSQTATLLHTDSQQRVRGINADYLNLLKRALNIKLTLREYADHQKAMDALAEGEVDIVLSHLVTSPPLNNDIAATKPLIITFPALVTTFHDSMRPLTSPKPVNIARVANYPPDEVIHQSFPKATIISFTNLYQALASVSAGHNDYFIGSNIITSSMISRYFTHSLNVVKYYNSPRQYNPLLTRKESVILNEVLNRFVDALTNEVRYEVSQNRLDTGNLAFLNKPLELTEHEKQWIKQHPNLKVLENPYSPPYSMTDENGSVRGVMGDILNIITLQTGLNFSPITVSHNIHAGTQLSPGGWDIIPGAIYSEDRENNVLFAEAFITTPYVFVMQKAPDSEQTLKKGMKVAIPYYYELHFELKEMYPEVEWIQVDNASAAFHKVKEGELDALVATQLNSRYMIDHYYPNELYHFLIPGVPNASLSFAFPRGEPELKDIINKALNAIPPSEVLRLTEKWIKMPNVTIDTWDLYSEQFYIVTTLSVLLVGSSLLWGFYLLRSVRRRKVIQGDLENQISFRKALSDSLPNPTYVVNWQGNVISHNSAFEHYFTADYYKNAMLPLENSDSPFKDVFSNAHEVTAETKENRTIYTQVFEIDNGIEKRCINHWHTLCNLPASDNAVYICGWQDITETRDLINALEVEKNKAIKATVAKSQFLATMSHEIRTPISSIMGFLELLSDSGLSKEQRVEAISLAYATKQSVLGLIGEILDVDKIESGNYQLQPQWVDIPTLVQNTCHSFGAIAASKSIALSCSSTFPEHYLVKIDPQAFKQVLSNLLSNALKFTTEGAVKITTSLGHIDDNHAVIKMTIMDSGSGLLQEEQQQLFKRYSQTSAGRQQTGSGLGLMICKELIKNMQGDLSLESHPGIGTTFTITIPVEISQQVATVEAKAEQPITLPEKLSILIADDHPTNRLLLKRQLNLLGYDVDEATDGVQALHKVSMQHYDLLITDVNMPNMDGFELTRKLREQNSSLPIWGLTANAQANEHEKGLSCGMNLCLFKPLTLDVLKTHLSQLYQVAHIAPQYRHLDIEALKNNTANDLQLMQEILMTFQHETHKDLPAAFQALEAGDNRTFHQCIHRIHGAANILNLQKLINISHQLEITPVSDDSKPEILQLLNSVKEHIAELDQEIAVFCQKND | failed |
| MKFLTVSDDMNFLRQVNTLVAGKGDMDSVIIGEGDAKGLGSKVLYRAKKGTPFDAVSEGILKIAGNYDYIAIGSTEVGREIAGYLSFKTGFYTATEIFSLEFNGQKAHTKRFFYGGKTVIEEESDARILTVAPGVIEAKDLGTTPEIRDLEIGQSRIKITKFVSKAGGSVRLEDAKVIVSVGRGIGSKENIAKIEPLAKALNGEIAGSRPVCMDYGWLSEDRQVGLSGKKVSPKVYIALGISGQIQHIAGMRNSKTVIAINKDKNAPIFQECDYGIVGDLFTVVPKILEQLKQ | failed |
| MKFVKASLYLSIALAISACGEQVSVESHLENAKSYLNENKVNESIIELKNAIRADTKNAEARFLLGQIYLSLGDGLAAVKELERAQSLKYPDNKVLPLLARAYILTDSDSDVIALSTAAKGLAAEERSQYLAYQTLAALRSEQPDLAKQSVELAQSIAQQSLYSMLASAYLQLSENKYDEVKTLISRILTIEAKQVDALMLQGQVAMVTEEYQLAVDSFKQYMELQPRFSMVELLLANALLKAGHDEEAEQHADAILAKVNNQPFANYIKAMVRFQAKDFDKASEHAEAALSADFNQFNLKLVAGASAFYLKNWQQSYHHLSAIVKYLPNDHQARRMLAVTQLELGLIDEISATIGDFDGNDEVNSQFLSSLSYKLLELGATTEAKKLLAQNGQNSSKNAAHNARQGILKLMMNDPSGIENLQDAVKLNPELIEAELAIAFSALQRGDIAKANAIAEKWQKQYPDKASSFNLLASIAIKEGKYDKAEQALKKSLSLEQDNFFALTEQLRIARKQENIPLSKQRADYLITIAPTNNKVLRQYFGVYRNEMALAKLTAAYELDKTDINKAILLSEAMVSLGQLKQAESILVSIADTAKLPKRYWQLLLLTYKKQKNFEKIRPTLEKWLKENPYHIEAVVLLTDFYASQRNYERALTVIKRGLDNHKDNLVLQLVQMQLLLNNKQISPAKSLYKIIENKNINDALKQGLLGRIYLLEEDYVQALPKLTVFYQTYPSSQNAIYLAGAHLGNKDNAKAVKVLEHYLTIDANNNRIETMLAGIYLENDSDKAIAVYDDVVKKQPKNVVAHNNLAWLYLEQDNISKALEHAEKALELAPQIANIVDTYAKVLLGSGDKRAALQYASKASEIAKGKDVDIQLNYVEALIANNRINEAKDLLAKVATATDEQKNKKSKLLAQL | failed |
| MKGKILDYSVQTNTAIIRTEDQKHYSFLGSAWREWIVPMPGMHVYFELDAQGEVTEVFIDVPEEDTPIAKPILTPVKAFITAPLMVDMQDKQHHTMLEKEAHYCMIDWVIKCFKNALDFKGRARRQEFWSFQFFYTVLGVGMLAFGHFLDLGHTLFIVSSIFMLLPALAVSVRRLHDINRSGWLLLINLVPIVGVLIVIFFFMTEEGDSRANAFGPPSK | failed |
| MKGLKALILVILVLGLVVGSVAAAPEKKVEQVRNVEKNYGLLTPGLFRKIQKLNPNEEISTVIVFENHREKEIAVRVLELMGAKVRYVYHIIPAIAADLKVRDLLVISGLTGGKAKLSGVRFIQEDYKVTVSAELEGLDESAAQVMATYVWNLGYDGSGITIGIIDTGIDASHPDLQGKVIGWVDFVNGRSYPYDDHGHGTHVASIAAGTGAASNGKYKGMAPGAKLAGIKVLGADGSGSISTIIKGVEWAVDNKDKYGIKVINLSLGSSQSSDGTDALSQAVNAAWDAGLVVVVAAGNSGPNKYTIGSPAAASKVITVGAVDKYDVITSFSSRGPTADGRLKPEVVAPGNWIIAARASGTSMGQPINDYYTAAPGTSMATPHVAGIAALLLQAHPSWTPDKVKTALIETADIVKPDEIADIAYGAGRVNAYKAINYDNYAKLVFTGYVANKGSQTHQFVISGASFVTATLYWDNANSDLDLYLYDPNGNQVDYSYTAYYGFEKVGYYNPTDGTWTIKVVSYSGSANYQVDVVSDGSLSQPGSSPSPQPEPTVDAKTFQGSVHYYYDRSDTFTMTVNSGATKITGDLVFDTSYHDLDLYLYDPNQKLVDRSESSNSYEHVEYLNPAPGTWYFLVYAYYTYGWAYYELTAKVYYG | failed |
| MKGREMKIVEFMKDKMVYIVFTLIFSSIYAGVHHRSIFLSLKVTLPIALFMMLFQPMVFMDIKKAFTTRTRVKTKYLILLTFFYTLLFPVLTWIFLKFWLRMMPNTEPQLLAGMVLIGLAPLPSSSPAFTNLAGGRFQLTLVGVMWTFLLSIFVMPFYAKLILHTIIQVPIEMLLKSLILYIITPLIIGQLTKYIILHWKGTDALISLKKPLIGISLIGMYWMIVVVFGINAKVIVERPELILIGAITMNIYFLLRAAIAYFIGKALDFPFEQNISLVYSTGSNMTLATAMAIGTFGPLAAVGTALGGPFSDMLLMIFFVKLFTLIRKKYIHNERKSITGG | failed |
| MKGRSGDVNINTNAISTPARVLIYSTAAVLLTIGMKAISSILMPIFFSIFSYLIFAPLVRWLMRKRVPGKISVVLVILVFIFVFVGTTLLFANSLLQLSGRIPNYENQLTSILNSISIYLPEAGVSVESVLRDIAAFAFNVSGDIISGALNAGSTIALIVITTTFLLLDSAGAPVKMQKEGENQPVHISQYTELSRTVINYMLLRTETNLLGGIGTAILLLAGGIDFAVLWGLLFFLFGYIPYLGFYLAAIPPMLLGLFEYGLIGAVGVLVGITIINALVENVIFPSLAGKGLKLSPTLVFLSLFYWSFVLGAAGALIAVPLTIVVKIILESSEETRMIAKLMESSGTRDLDEKSTEENISE | failed |
